Reference: US20090286719A1
pKd: −log10 of the molar value.

Columns and labels:
[1] = molecular target: a site on the cancer and normal cell surface (human); test: whole-cell binding assay on UISO-Mel-2 cells with 125I azurin, Scatchard analysis
[2] = molecular target: a site on the cancer and normal cell surface (human); test: whole-cell binding assay on UISO-Mel-2 cells, 125I azurin with or without unlabeled competitor, Scatchard analysis

| Substance | Bmax [1] | pKd [1] | Bmax [2] |
| --- | --- | --- | --- |
| azurin from Pseudomonas aeruginosa (wt-azurin) | 0.48 pm | 8.00 |  |
| p18, Leu50-Gly67 of Pseudomonas aeruginosa azurin (peptide) |  |  | 0.51 pm |
| p28, Leu50-Asp77 of Pseudomonas aeruginosa azurin (peptide) |  |  | 3 |
